# In paper PMC12590944:
# Target: Archaeoglobus fulgidus ferritin (AfFt), empty cage (Archaeoglobus fulgidus) (UniProt O29424)
# Experiment: UV-vis spectra; AfFt@ samples (AfFt mixed with APEX2-GFP+ at 1:3 under 300 mM NaCl); cargo per cage calculated from the spectra
substance,measurement,value
Engineered Ascorbate Peroxidase 2-GFP+36 fusion protein (APEX2-GFP+) (enzyme),stoichiometry N (cargo molecules per cage),1.45
